One block for each molecule: values may come before it.
Key:
[1] = molecular target: T1, human FAP (Homo sapiens, UniProt Q12884); assay: BLI click reaction with Tz-R3B23 on TCO-VHHs bound to target, span (Example 7, Table 18); details: signal difference vs assay buffer
T1 sequence (Q12884 1-760): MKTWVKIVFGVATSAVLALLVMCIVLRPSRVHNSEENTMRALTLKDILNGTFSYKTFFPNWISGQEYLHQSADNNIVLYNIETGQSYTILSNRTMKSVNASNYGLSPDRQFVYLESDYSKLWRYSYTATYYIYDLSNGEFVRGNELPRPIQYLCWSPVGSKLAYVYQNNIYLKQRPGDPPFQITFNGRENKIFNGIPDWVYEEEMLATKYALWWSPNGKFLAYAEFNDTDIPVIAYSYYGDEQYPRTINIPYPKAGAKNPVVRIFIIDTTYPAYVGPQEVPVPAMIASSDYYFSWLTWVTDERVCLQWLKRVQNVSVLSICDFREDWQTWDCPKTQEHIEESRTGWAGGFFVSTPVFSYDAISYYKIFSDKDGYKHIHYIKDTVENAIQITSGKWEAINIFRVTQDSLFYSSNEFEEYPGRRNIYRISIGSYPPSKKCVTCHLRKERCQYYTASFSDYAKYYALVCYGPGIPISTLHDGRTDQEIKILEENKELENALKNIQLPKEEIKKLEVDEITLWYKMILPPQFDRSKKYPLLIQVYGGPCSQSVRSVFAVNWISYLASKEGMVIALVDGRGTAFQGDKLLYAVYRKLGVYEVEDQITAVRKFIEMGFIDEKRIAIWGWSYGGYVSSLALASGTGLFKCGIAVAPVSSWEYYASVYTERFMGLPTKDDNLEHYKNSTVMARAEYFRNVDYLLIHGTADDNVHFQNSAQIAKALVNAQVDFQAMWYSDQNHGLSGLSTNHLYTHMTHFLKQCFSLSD
Experimental: Next, Octet Streptavidin (SA) Biosensors were coated with 5 μg/mL biotinylated human FAP in assay buffer (HBS+0.5% BSA+0.1% Tween20) for 5 minutes. The sensors were then dipped in wells containing a 5 nM solution of the different VHHs (both TCO conjugated and unconjugated as control) for 20 minutes (association step) and further transferred to the assay buffer (dissociation step) for 30 minutes. After the dissociation phase, that simulates the lag time, the sensors were transferred to either a well containing 50 nM of a tetrazine-coupled, non-FAP binding R3B23 (Tz-R3B23) or to a well containing assay buffer as a control. This reaction was allowed to proceed for 20 minutes (experiment 1) or 30 minutes (experiment 2) after which the sensors were washed for 30 minutes in assay buffer. In the second experiment the TCO-VHHs were measured in duplicate (referred to as assay 1 and 2 of ‘experiment 2’ in the table below). Using the epitope binning function of ‘Octet Analysis Software’ we then determined the difference in signal between the VHHs incubated with Tz-R3B23 and the VHHs incubated with assay buffer. […] The span of unconjugated VHHs was considered as noise.

[2] = molecular target: T2, human fibroblast activation protein (FAP) (human, UniProt Q12884 26-760); assay: BLI (Octet), kinetics to human FAP, post TCO conjugation
T2 construct: also called human FAP; hFAP
T2 sequence: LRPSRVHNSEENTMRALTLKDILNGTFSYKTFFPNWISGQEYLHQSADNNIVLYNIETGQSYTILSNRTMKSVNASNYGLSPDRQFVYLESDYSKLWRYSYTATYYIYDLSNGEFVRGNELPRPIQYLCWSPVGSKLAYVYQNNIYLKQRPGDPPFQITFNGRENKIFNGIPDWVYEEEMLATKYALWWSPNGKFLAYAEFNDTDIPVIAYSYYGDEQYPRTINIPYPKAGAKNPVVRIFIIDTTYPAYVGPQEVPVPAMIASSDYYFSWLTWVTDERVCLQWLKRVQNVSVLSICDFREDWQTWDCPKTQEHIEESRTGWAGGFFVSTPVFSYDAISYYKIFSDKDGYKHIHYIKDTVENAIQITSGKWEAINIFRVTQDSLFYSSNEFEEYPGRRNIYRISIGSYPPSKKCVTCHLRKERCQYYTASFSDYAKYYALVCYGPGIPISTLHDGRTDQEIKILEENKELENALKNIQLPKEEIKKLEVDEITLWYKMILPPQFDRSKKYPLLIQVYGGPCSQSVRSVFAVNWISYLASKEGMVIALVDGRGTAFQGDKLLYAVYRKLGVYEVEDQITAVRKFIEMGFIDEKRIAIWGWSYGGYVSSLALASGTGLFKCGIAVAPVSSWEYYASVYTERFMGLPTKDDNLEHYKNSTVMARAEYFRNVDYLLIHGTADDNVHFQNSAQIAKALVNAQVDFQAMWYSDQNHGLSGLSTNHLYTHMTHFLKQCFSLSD
Experimental: Using the BLI technology on Octet system the binding kinetics towards human FAP were determined for each of the five VHHs pre- and post-TCO conjugation.

[3] = molecular target: T3, human folate receptor alpha (FOLR1) (human, UniProt P15328 25-234, limits assumed); assay: SPR (Biacore), kinetics to hFOLR1, pre TCO conjugation
T3 construct: also called hFOLR1; human FOLR1

[4] = molecular target: T3, human folate receptor alpha (FOLR1); assay: SPR (Biacore), kinetics to hFOLR1, post TCO conjugation
[5] = molecular target: T4, hFOLR1 (Homo sapiens, UniProt P15328); assay: SPR (Biacore) binding kinetics before and after TCO conjugation (Example 8, Table 19)
From the text: Using Surface Plasmon Resonance (Biacore) we determined the binding kinetics of the unconjugated and TCO-conjugated VHH (TCO-VHH) for the respective target as described earlier for VHH2 and VHH8 (EP3718574A1).

[6] = molecular target: T4, hFOLR1; assay: SPR click reaction with Tz-R3B23, span of relative response (Example 8, Table 20); details: Biacore
Experimental: Next, the click reaction was verified using SPR. 5 μg/mL recombinant hHER2 in 10 mM NaOAc pH 4.5 or 5 μg/mL recombinant hFOLR1 in 10 mM NaOAc pH 5.5 was immobilized on a Biacore Sensor Chip CM5 to a target level of 740 Response Units (RU) and 250 RU, respectively. […] For the VHH7 binding FOLR1 a VHH concentration of 5 nM was used, and the association and dissociation phases took 450 s and 900 s, respectively. […] As a negative control for the click reaction, we injected assay buffer (HBS) instead of the Tz-R3B23 over the flow cell. Using the Biacore evaluation software we determined the difference between the relative response before and after the click reaction with either the Tz-R3B23 or the negative control assay buffer. This difference is further on referred to as span.

T3 sequence (P15328 25-234 limits assumed): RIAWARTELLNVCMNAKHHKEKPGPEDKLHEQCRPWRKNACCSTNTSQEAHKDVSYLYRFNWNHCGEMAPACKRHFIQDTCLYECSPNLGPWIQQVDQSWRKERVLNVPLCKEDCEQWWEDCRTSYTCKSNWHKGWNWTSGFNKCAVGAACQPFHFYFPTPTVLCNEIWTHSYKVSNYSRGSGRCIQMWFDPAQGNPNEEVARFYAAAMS
T4 sequence (P15328 25-234): as the sequence (P15328 25-234 limits assumed) above

B1: TCO-VHH6 (VHH)
VHH: DVQLVESGGGLVQAGGSLRLSCAVSGSISSANSMGWYRQAPGKQRDVVAGLTTGGRSHYADSVKGRFTISRDNAKNTVYLQMNSLKAEDTAVYYCNLWPPVQGYWGQGTQVTVSS
modifications: trans-cyclooctene (TCO) conjugated via TCO-NHS; site(s) and number not stated
notes: also called TCO conjugated VHH6; VHH6 post conjugation
Span ([1]; Experiment 1, click reaction with 50 nM Tz-R3B23 for 20 minutes): 0.0230
Span ([1]; Experiment 2, 1st assay, click reaction with 50 nM Tz-R3B23 for 30 minutes): 0.0287
Span ([1]; Experiment 2, 2nd assay, click reaction with 50 nM Tz-R3B23 for 30 minutes): 0.0229
Kd [2]: 0.147 nM
koff [2]: 0.000157 s⁻¹
kon [2]: 1.07e+06 M⁻¹ s⁻¹

B2: TCO-VHH1 (VHH)
VHH: DVQLVESGGGLVQPGGSLRLSCVASGRLSSSNSMAWYRQVPGKRRELVAGITGGGETNYADFVGGRFTISRDNAKNGLYLQLNGLKPEDTAAYYCNFWPPLINYWGQGTQVTVSS
modifications: trans-cyclooctene (TCO) conjugated via TCO-NHS; site(s) and number not stated
notes: also called TCO conjugated VHH1; VHH1 post conjugation
Kd [2]: 0.0719 nM
koff [2]: 4.99e-05 s⁻¹
kon [2]: 694000 M⁻¹ s⁻¹

B3: TCO-VHH7 (VHH)
VHH: QVQLQESGGGLVQAGGSLRLSCTASGTFSGRNAMAWYRQAPGKRRELVAGIRSDDSTNYVDSVKGRFTISRDNAKNTVYLQMNSLRPEDTAVYYCNLWPPVIGAGFGSWGQGTQVTVSS
modifications: trans-cyclooctene (TCO) conjugated via TCO-NHS; site(s) and number not stated
notes: also called TCO conjugated VHH7; VHH7 post conjugation
Kd [2]: 0.166 nM
koff [2]: 0.000123 s⁻¹
kon [2]: 746000 M⁻¹ s⁻¹

B5: TCO-VHH2 (VHH)
VHH: DVQLVESGGGLVQPGGSLRLSCAASESIFSRNHMSWYRQAPGKQRELAAIITSDGNTNYPDSVKGRFTISRDNAKNTVYLQMNSLKPEDTAVYYCNTFGRSVAGFYDYWGQGTQVTVSS
modifications: trans-cyclooctene (TCO) conjugated via NHS-TCO; site(s) and number not stated
notes: also called TCO-conjugated VHH2; VHH2 post conjugation
Kd [4]: 0.0734 nM
koff [4]: 0.000192 s⁻¹
kon [4]: 2.61e+06 M⁻¹ s⁻¹

B8: TCO-VHH8 (VHH)
VHH: QVQLQESGGGTVQPGGSLRLSCAASGISVSIASMAWYRQAPGKQRELVAGIISGGSTNYADSVKGRFTISRDNAKKVVLLQMNSLKPEDTAVYYCNTYPPFVGPGATATWGQGTQVTVSS
modifications: trans-cyclooctene (TCO) conjugated via TCO-NHS; site(s) and number not stated
notes: also called TCO conjugated VHH8; VHH8 post conjugation
Kd [2]: 0.671 nM
koff [2]: 0.000559 s⁻¹
kon [2]: 833000 M⁻¹ s⁻¹

The remaining lines, values ahead:

Kd [3]: 0.047 nM
koff [3]: 0.000167 s⁻¹
kon [3]: 3.54e+06 M⁻¹ s⁻¹
B4: VHH2 (VHH)
VHH: DVQLVESGGGLVQPGGSLRLSCAASESIFSRNHMSWYRQAPGKQRELAAIITSDGNTNYPDSVKGRFTISRDNAKNTVYLQMNSLKPEDTAVYYCNTFGRSVAGFYDYWGQGTQVTVSS
notes: Anti-FOLR1 VHH, tested before TCO conjugation; also called VHH VHH2; unconjugated VHH2

binding kinetics after TCO conjugation [5]: barely affected
koff ([5]; Post conjugation (TCO)): 0.000192 s⁻¹
kon ([5]; Post conjugation (TCO)): 2.61e+06 M⁻¹ s⁻¹
koff ([5]; Pre conjugation): 0.000167 s⁻¹
kon ([5]; Pre conjugation): 3.54e+06 M⁻¹ s⁻¹
Span of the Relative Response ([6]; TCO-VHH bound on hFOLR1, Tz-R3B23 at 100 times molar excess): 12.3 RU
Span of the Relative Response ([6]; Unconjugated VHH bound on hFOLR1, Tz-R3B23 at 100 times molar excess): 0.6 RU
B6: VHH2: VHH, target FOLR1, SEQ ID NO 21 (protein)
VHH: DVQLVESGGGLVQPGGSLRLSCAASESIFSRNHMSWYRQAPGKQRELAAIITSDGNTNYPDSVKGRFTISRDNAKNTVYLQMNSLKPEDTAVYYCNTFGRSVAGFYDYWGQGTQVTVSS
modifications: Full length sequence of VHH2

Kd [2]: 0.951 nM
koff [2]: 0.0012 s⁻¹
kon [2]: 1.26e+06 M⁻¹ s⁻¹
B7: TCO-VHH9 (VHH)
VHH: QVQLQESGGGLVQSGGSLRLSCVASGSISSINAMGWYRQAPGNKREWVAGITSGGSTNYADAVLGRFSIFRDNPKNTVYLQMNSLKPEDTAVYYCNTWPPSTFGSWGQGTQVTVSS
modifications: trans-cyclooctene (TCO) conjugated via TCO-NHS; site(s) and number not stated
notes: also called TCO conjugated VHH9; VHH9 post conjugation
